Results published in the supplement of paper PMC11908140.

B1: library; numbered along this chain (parent)
chain: MRKPRAAVGSGHRKQAASQEGRQKHAKNNSQAKPSACDGLARQPEEVVLQASVSSYHLFRDVAEVTAFRGSLLSWYDQEKRDLPWRRRAEDEMDLDRRAYAVWVSEVMLQQTQVATVINYYTGWMQKWPTLQDLASASLEEVNQLWAGLGYYSRGRRLQEGARKVVEELGGHMPRTAETLQQLLPGVGRYTAGAIASIAFGQATGVVDGNVARVLCRVRAIGADPSSTLVSQQLWGLAQQLVDPARPGDFNQAAMELGATVCTPQRPLCSQCPVESLCRARQRVEQEQLLASGSLSGSPDVEECAPNTGQCHLCLPPSEPWDQTLGVVNFPRKASRKPPREESSATCVLEQPGALGAQILLVQRPNSGLLAGLWEFPSVTWEPSEQLQRKALLQELQRWAGPLPATHLRHLGEVVHTFSHIKLTYQVYGLALEGQTPVTTVPPGARWLTQEEFHTAAVSTAMKKVFRVYQGQQPGTCMGSKRSQVSSPCSRKKPRMGQQVLDNFFRSHISTDAHSLNSAAQ

Variants of: B1
Assay: 8OG:A repair function score (normalized; synonymous = 0, nonsense = -1) (normalized log-likelihood score); higher = more repair activity (WT-like)
Settings: with 8OG:A DNA repair reporter (GFP) in HEK-293 MUTYH KO cells
How it was run: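 After 72 h, viable mCherry+ cells were split into GFP+ (repair) and GFP− bins in three replicates per tile. These cells were MUTYH knockout HEK-293 cells holding lentiviral MUTYH cDNA NNN codon-scan libraries, kept in 10 pg/ml doxycycline and co-transfected with mCherry plus an 8OG:A GFP repair reporter. Sequencing of tile amplicons gave per-tile Rosace fitness scores, normalized into a repair function score anchored on synonymous and nonsense distributions. Synonymous medians were fixed at 0, nonsense at -1, and variants under 300 counts per million at the start were removed.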
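Note: cells sorted at 72 h after reporter transfection.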

8OG:A repair function score of substitutions, site by site:
T440: W -0.105 | Y 0.157 | I -0.117 | A -0.131 | M -0.109 | H -0.111 | N -0.313 | P -0.041 | L -0.194 | D -0.0869 | F 0.0139 | K 0.0852 | C 0.0206 | E 0.0718 | R -0.0347 | V -0.0931 | Q -0.0653 | G -0.145 | S 0.0249
V441: I -0.0341 | Q -0.259 | F -0.0997 | S -0.0467 | D -0.144 | G -0.221 | E -0.161 | L -0.0169 | K -0.215 | P -0.0374 | W -0.278 | H -0.533 | N -0.259 | C -0.261 | A -0.0435 | M 0.176 | T -0.0387 | Y -0.0452 | R -0.293
V438: I -0.407 | Y -0.0793 | S -0.176 | C 0.134 | D 0.0779 | T -0.0976 | G -0.176 | N 0.103 | W -0.131 | K -0.0297 | L -0.0153 | R 0.11 | A 0.149 | Q 0.187 | E 0.281 | H -0.17 | P 0.0371 | M -0.252 | F -0.193
T436: H 0.323 | Y 0.0674 | S -0.173 | V -0.079 | L 0.548 | R -0.124 | E -0.16 | I -0.0834 | N -0.0228 | Q 0.0306 | M 0.186 | G -0.0926 | K -0.201 | F -0.0267 | W -0.00145 | P -0.0919
P443: V 0.172 | D -0.00467 | Q 0.0864 | K -0.324 | F 0.179 | H 0.055 | C -9.64e-05 | N 0.222 | W -0.309 | G -0.0689 | S 0.0247 | Y -0.0335 | A 0.0799 | R -0.143 | T -0.199 | I 0.0878 | L 0.058 | E -0.318 | M 0.0448
G444: L -0.255 | Q -0.113 | P -0.189 | C -0.242 | A -0.284 | W -0.444 | M -0.298 | I -0.373 | K -0.0942 | H -0.155 | V -0.448 | S -0.291 | R -0.119 | N -0.198 | D -0.275 | T -0.00488 | F -0.32 | E -0.0932
T439: A 0.0597 | Y -0.104 | P 0.126 | E 0.0225 | K 0.00137 | W 0.0448 | M 0.106 | R -0.0617 | L -0.0119 | C -0.19 | G 0.107 | S -0.0274 | D -0.225 | Q -0.173 | F -0.0571 | N -0.0163 | I 0.0704 | H 0.301 | V 0.0472
P437: N -0.284 | H 0.0786 | K -0.15 | S -0.0348 | T -0.142 | D -0.128 | W 0.078 | Y -0.351 | I -0.277 | A -0.00344 | G 0.136 | E 0.0852 | F -0.282 | R -0.174 | L -0.197 | M -0.528 | C -0.244 | Q -0.0348 | V -0.0519
P442: D -0.0873 | S 0.00212 | G -0.171 | Q 0.213 | H 0.0816 | C -0.141 | L -0.12 | F -0.0534 | K -0.261 | E -0.177 | M 0.0715 | Y -0.28 | W -0.205 | N -0.426 | V -0.0512 | I -0.0279 | T -0.0315 | R -0.0654 | A -0.19
